Measurements from patent publication US20220242935A1.

Key:
Assay in all cases: crystal structure of the Fab-NA complex
[1] = target: N1 NA ectodomain of A/California/04/2009 (H1N1) (influenza A virus A/California/04/2009 (H1N1)) (UniProt Q6DPI6)
[2] = target: N9 NA ectodomain of A/Hunan/02650/2016 (H7N9) (influenza A virus A/Hunan/02650/2016 (H7N9))
[3] = target: N2 NA ectodomain of A/Japan/305/1957 (H2N2) (influenza A virus A/Japan/305/1957 (H2N2))

For 1G01 Fab, which total buried surface area on the NA [1] is on record?
Its total buried surface area on the NA is 800 Å2.

1G04 Fab was tested. Which total buried surface area on the NA [2] did it give?
Its total buried surface area on the NA is 1030 Å2.

1E01 Fab was tested. Which total buried surface area on the NA [3] did it give?
The total buried surface area on the NA was 900 Å2.
